Test results published in PMC5538822, “RNA-dependent stabilization of SUV39H1 at constitutive heterochromatin”.

Experiments:
[1] = target: T1, MBP-SUV39H1 1-106 (NTE + chromodomain) (Homo sapiens) (UniProt O43463); experiment: EMSA; settings: 20 mM Tris-HCl pH 7.4, 50 mM NaCl, 10% glycerol, ~4 U RNase inhibitor, room temperature 10 min; native gel 0.5X TBE at 25 C; filter binding on nitrocellulose …
T1 sequence: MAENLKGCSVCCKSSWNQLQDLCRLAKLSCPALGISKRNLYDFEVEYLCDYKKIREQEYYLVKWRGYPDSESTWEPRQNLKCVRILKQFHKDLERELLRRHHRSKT

[2] = target: T2, MBP-SUV39H1 1-106 (NTE + chromodomain) (Homo sapiens, UniProt O43463 1-106); experiment: EMSA; 20 mM Tris-HCl pH 7.4, 50 mM NaCl, 10% glycerol, ~4 U RNase inhibitor, room temperature 10 min; native gel 0.5X TBE at 25 C; filter binding on nitrocellulose in the same buffer; settings: protein: recombinant, tags: MBP, label: 32P
T2 sequence: T1 sequence

[3] = target: T3, MBP-SUV39H1 1-41 (N-terminal extension) (Homo sapiens, UniProt O43463 1-41); experiment: as above; settings: protein: recombinant; tags: MBP; label: 32P
T3 chain: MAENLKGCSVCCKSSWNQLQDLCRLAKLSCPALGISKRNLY

[4] = target: T4, MBP-SUV39H1 107-412 (pre-SET, SET, post-SET) (Homo sapiens, UniProt O43463 107-412); experiment: as above; settings: protein: recombinant; tags: MBP; label: 32P
T4 sequence: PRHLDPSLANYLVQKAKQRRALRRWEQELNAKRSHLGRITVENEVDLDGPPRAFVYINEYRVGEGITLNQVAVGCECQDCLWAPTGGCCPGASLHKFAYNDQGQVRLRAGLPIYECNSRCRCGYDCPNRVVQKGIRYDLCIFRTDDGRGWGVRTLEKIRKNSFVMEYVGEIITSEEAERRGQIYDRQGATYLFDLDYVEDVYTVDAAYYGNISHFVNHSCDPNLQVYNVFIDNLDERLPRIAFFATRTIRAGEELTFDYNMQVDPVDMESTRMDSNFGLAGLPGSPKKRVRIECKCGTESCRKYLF

[5] = target: T5, MBP-SUV39H1 42-106 (chromodomain) (Homo sapiens, UniProt O43463 42-106); experiment: as above; settings: protein: recombinant; tags: MBP; label: 32P
T5 sequence: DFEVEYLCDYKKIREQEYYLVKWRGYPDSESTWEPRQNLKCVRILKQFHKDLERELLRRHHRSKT

Question: With beta-actin ssRNA (180mer) as the molecule, how does the Kd [1] read?
Answer: 32 nM

Question: How did the Kd [1] turn out when alpha-satellite ssRNA (180mer) was run?
Answer: 23 nM

B1: dsRNA MBP 1-50 (dsRNA)
RNA 1: ACCAAAAUCGAAGAAGGUAAACUGGUAAUCUGGAUUAACGGCGAUAAAGG
RNA 2: CCUUUAUCGCCGUUAAUCCAGAUUACCAGUUUACCUUCUUCGAUUUUGGU
Question: Does B1 bind ([2]; blunt)?
Answer: binds

Question: ACCAAAAUCGAAGAAGGUAAACUGGUAAUCUGGAUUAACGGCGAUAAAGG (ssRNA) [ssRNA1, sense MBP 1-50] was tested. Which Kd [2] did it give?
Answer: 61 ± 5 nM

Question: CCUUUAUCGCCGUUAAUCCAGAUUACCAGUUUACCUUCUUCGAUUUUGGU (ssRNA) [ssRNA2, antisense MBP 1-50] was tested. Which Kd [2] did it give?
Answer: 64 ± 3 nM

Question: AUAUGGGAACCACUGAUCC (ssRNA) [sense 19mer ssRNA] was tested. Which Kd [2] did it give?
Answer: 145 ± 9 nM

Question: And the Kd [3]?
Answer: 51000 ± 30000 nM

Question: Does AUAUGGGAACCACUGAUCC (ssRNA) [sense 19mer ssRNA] bind [4]?
Answer: no binding

Question: What about the Kd [5] of the same molecule?
Answer: 2310 ± 170 nM

Question: For GGGAUCAGUGGUUCCCAUA (ssRNA) [antisense 19mer ssRNA], which Kd [2] is on record?
Answer: 366 ± 22 nM

Question: Does ACCAAAATCGAAGAAGGTAAACTGGTAATCTGGATTAACGGCGATAAAGG (ssDNA) [ssDNA, sense MBP 1-50] bind [2]?
Answer: binds

B2: dsDNA MBP 1-50 (dsDNA)
DNA 1: ACCAAAATCGAAGAAGGTAAACTGGTAATCTGGATTAACGGCGATAAAGG
DNA 2: CCTTTATCGCCGTTAATCCAGATTACCAGTTTACCTTCTTCGATTTTGGT
Question: Which Kd ([2]; blunt) does the source give for B2 here?
Answer: 185 ± 17 nM
